In patent US20150291692A1 (INNATE PHARMA, published 2015):
Each block holds one binder with its values, some of them ahead of it.

Experiments:
[1] = molecular target: T1, KIR3DL2 at the surface of HUT78 Sezary Syndrome cell line (human, UniProt P43630 22-455); experiment: flow cytometry competition on HUT78 cells; naked antibody titrated against 15C11-PE (5 µg/ml)
T1 construct: whole, on cells; Two alleles are expressed

[2] = molecular target: T2, KIR3DL2 recombinant protein (R&D Systems) (human, UniProt P43630 28-340); experiment: SPR (Biacore T100), antibody injected over immobilised recombinant KIR3DL2, bivalent affinity, pH 7.2
T2 construct: Bought protein; also called rec KIR3DL2; recombinant KIR3DL2-Fc fusion protein; not shown: Fc part of the bought fusion protein; not described

[3] = molecular target: T2, KIR3DL2 recombinant protein (R&D …); experiment: SCK kinetic method
[4] = molecular target: T3, KIR3DL2 on fresh Sezary Syndrome cells of patients (human, UniProt P43630 22-455); experiment: flow cytometry of whole blood of a Sezary Syndrome patient, antibody + GaM-PE against CD4; upper gate (CD4+ KIR3DL2+ leukemic Sezary cells)
T3 construct: whole, on cells; also called SS cells

[5] = molecular target: T4, KIR2DL3 on transfected BWZ cells (UniProt P43628 22-341, limits assumed); experiment: flow cytometry on transfected BWZ cells
T4 construct: whole, on cells
T4 sequence (P43628 22-341 limits assumed): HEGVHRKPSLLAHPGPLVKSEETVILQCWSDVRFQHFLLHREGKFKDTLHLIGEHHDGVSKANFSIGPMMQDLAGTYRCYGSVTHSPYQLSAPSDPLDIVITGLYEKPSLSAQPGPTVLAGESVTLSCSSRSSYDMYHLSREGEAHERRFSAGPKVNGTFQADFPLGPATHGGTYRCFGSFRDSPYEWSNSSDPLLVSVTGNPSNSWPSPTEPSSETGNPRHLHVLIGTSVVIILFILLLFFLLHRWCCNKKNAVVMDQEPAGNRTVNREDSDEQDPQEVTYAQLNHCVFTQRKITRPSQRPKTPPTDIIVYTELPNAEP

[6] = molecular target: T5, KIR2DS2 on transfected BWZ cells (UniProt P43631 22-304, limits assumed); experiment: flow cytometry on transfected BWZ cells
T5 construct: whole, on cells
T5 sequence (P43631 22-304 limits assumed): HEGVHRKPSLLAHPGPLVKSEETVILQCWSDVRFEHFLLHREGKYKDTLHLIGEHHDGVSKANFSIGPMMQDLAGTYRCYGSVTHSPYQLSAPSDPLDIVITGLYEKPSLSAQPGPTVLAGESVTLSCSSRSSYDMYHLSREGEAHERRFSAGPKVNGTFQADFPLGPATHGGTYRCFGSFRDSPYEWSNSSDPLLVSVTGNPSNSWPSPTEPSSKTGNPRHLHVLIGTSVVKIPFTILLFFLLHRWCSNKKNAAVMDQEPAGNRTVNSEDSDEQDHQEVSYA

[7] = molecular target: T6, KIR2DS4 on transfected BWZ cells (UniProt P43632 22-304, limits assumed); experiment: flow cytometry on transfected BWZ cells
T6 construct: whole, on cells
T6 sequence (P43632 22-304 limits assumed): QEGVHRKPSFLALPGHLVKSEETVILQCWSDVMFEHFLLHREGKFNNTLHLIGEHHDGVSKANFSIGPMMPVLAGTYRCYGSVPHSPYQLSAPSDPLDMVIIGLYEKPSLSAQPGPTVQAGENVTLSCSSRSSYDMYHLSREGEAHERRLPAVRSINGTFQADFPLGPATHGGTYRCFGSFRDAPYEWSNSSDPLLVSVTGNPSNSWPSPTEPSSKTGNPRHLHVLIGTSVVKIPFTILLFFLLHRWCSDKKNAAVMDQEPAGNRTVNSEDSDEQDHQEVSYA

[8] = molecular target: T7, KIR2DS1 on transfected BWZ cells (UniProt Q14954 22-304, limits assumed); experiment: flow cytometry on transfected BWZ cells
T7 construct: whole, on cells; also called BWZ-KIR2DS1
T7 sequence (Q14954 22-304 limits assumed): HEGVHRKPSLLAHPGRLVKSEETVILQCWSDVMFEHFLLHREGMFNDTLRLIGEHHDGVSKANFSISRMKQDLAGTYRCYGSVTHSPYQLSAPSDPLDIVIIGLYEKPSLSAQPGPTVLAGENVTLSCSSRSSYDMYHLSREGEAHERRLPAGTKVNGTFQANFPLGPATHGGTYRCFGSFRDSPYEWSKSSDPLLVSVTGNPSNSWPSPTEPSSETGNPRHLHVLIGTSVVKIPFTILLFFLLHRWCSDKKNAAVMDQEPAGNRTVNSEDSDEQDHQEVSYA

[9] = molecular target: T8, KIR2DL1 on transfected BWZ cells (UniProt P43626 22-348, limits assumed); experiment: flow cytometry on transfected BWZ cells
T8 construct: whole, on cells
T8 sequence (P43626 22-348 limits assumed): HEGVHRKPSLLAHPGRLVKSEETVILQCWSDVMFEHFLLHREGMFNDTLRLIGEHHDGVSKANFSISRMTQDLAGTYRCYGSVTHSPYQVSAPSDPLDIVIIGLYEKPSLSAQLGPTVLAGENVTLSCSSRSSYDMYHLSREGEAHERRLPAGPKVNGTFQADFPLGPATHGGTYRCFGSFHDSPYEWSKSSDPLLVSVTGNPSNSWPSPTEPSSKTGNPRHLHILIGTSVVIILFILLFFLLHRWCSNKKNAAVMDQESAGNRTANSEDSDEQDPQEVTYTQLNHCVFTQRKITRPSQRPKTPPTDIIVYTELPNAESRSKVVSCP

[10] = molecular target: T9, KIR3DL1 expressed on cells (human, UniProt P43629 22-444); experiment: flow cytometry on HEK KIR3DL1 cells (row HEK-KIR3DL1)
T9 construct: also called HEK-293T/KIR3DL1
T9 sequence (P43629 22-444 limits assumed): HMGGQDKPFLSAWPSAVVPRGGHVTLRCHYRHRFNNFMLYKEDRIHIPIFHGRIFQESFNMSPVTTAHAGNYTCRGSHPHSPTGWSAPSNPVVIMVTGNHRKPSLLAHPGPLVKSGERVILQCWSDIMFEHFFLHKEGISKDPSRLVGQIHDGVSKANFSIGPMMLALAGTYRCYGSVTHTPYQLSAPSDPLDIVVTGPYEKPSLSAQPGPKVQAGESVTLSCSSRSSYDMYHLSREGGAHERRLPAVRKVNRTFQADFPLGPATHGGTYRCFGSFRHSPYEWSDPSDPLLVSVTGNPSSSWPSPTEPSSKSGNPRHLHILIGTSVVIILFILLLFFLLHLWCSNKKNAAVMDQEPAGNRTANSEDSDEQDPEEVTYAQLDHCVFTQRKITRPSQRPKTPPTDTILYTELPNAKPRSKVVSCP

[11] = molecular target: T10, NK cells, including normal KIR3DL2+ NK cells (Homo sapiens, UniProt P43630); experiment: flow cytometry of whole blood of a Sezary Syndrome patient, antibody + GaM-PE against CD4; lower gate (CD4-negative NK cells)
T10 construct: full-length receptor on the cell surface; also called gate NK GaM PE+; KIR3DL2 on CD4-negative NK cells in the blood of the Sezary Syndrome patient

[12] = molecular target: T11, KIR3DL2 mutant M11A4 (E130S;H131S;R145S) (human, UniProt P43630 22-455); experiment: flow cytometry on HEK-293T cells transfected with the mutant; - means substantially complete loss of binding
T11 construct: Expressed on transfected HEK-293T cells; also called Number 27 (11A4)

[13] = molecular target: T12, KIR3DL2 mutant M11A6 (I150A;M128A) (human, UniProt P43630 22-455); experiment: as above
T12 construct: Expressed on transfected HEK-293T cells; also called Number 29 (11A6)

[14] = molecular target: T13, KIR3DL2 mutant M7 (L113V;T118R) (human, UniProt P43630 22-455); experiment: flow cytometry on HEK-293T cells transfected with the mutant; + no significant loss of binding, ± decrease
T13 construct: Expressed on transfected HEK-293T cells; also called Number 7

[15] = molecular target: T14, KIR3DL2 mutant M11A1 (V178A;H180S) (human, UniProt P43630 22-455); experiment: as above
T14 construct: Expressed on transfected HEK-293T cells; also called Number 24 (11A1); mutant 11A1

[16] = molecular target: T15, KIR3DL2 mutant M8 + 11 (V127I;P179T;S181T) (human, UniProt P43630 22-455); experiment: as above
T15 construct: Expressed on transfected HEK-293T cells; also called Number 23 (8 + 11)

[17] = molecular target: T16, KIR3DL2 mutant M11 (P179T;S181T) (human, UniProt P43630 22-455); experiment: as above
T16 construct: Expressed on transfected HEK-293T cells; also called Number 11; mutant 11

[18] = molecular target: T17, KIR3DL2 mutant M11A5 (V147A;Q149S) (human, UniProt P43630 22-455); experiment: as above
T17 construct: Expressed on transfected HEK-293T cells; also called Number 28 (11A5)

[19] = molecular target: T18, KIR3DL2 mutant M11A3 (N99S;H100S;Q184A) (human, UniProt P43630 22-455); experiment: as above
T18 construct: Expressed on transfected HEK-293T cells; also called Number 26 (11A3)

[20] = molecular target: T19, KIR3DL2 mutant M10 (R136K;E141K) (human, UniProt P43630 22-455); experiment: as above
T19 construct: Expressed on transfected HEK-293T cells; also called Number 10

[21] = molecular target: T20, KIR3DL2 mutant M9 (L164M;P166L;V167A) (human, UniProt P43630 22-455); experiment: as above
T20 construct: Expressed on transfected HEK-293T cells; also called Number 9

[22] = molecular target: T21, KIR3DL2 mutant MD0/HLA1 (F9S, S11A) (human, UniProt P43630 22-455); experiment: flow cytometry on HEK-293T cells transfected with the mutant
T21 construct: Expressed on transfected HEK-293T cells; also called Number 31 (D0-HLA1)

[23] = molecular target: T22, KIR3DL2 mutant 2 (I60N, G62S) (human, UniProt P43630 22-455); experiment: as above
T22 construct: The running text prints 160N for I60N; Expressed on transfected HEK-293T cells; also called Number 2

[24] = molecular target: T23, KIR3DL2 mutant 2A2 (Q56S, E57A) (human, UniProt P43630 22-455); experiment: as above
T23 construct: Expressed on transfected HEK-293T cells; also called Number 34 (1 + 2 A2)

[25] = molecular target: T24, KIR3DL2 mutant 1 (R13W, A25T, Q27R) (human, UniProt P43630 22-455); experiment: as above
T24 construct: Expressed on transfected HEK-293T cells; also called Number 1

[26] = molecular target: T25, wild-type human KIR3DL2 (allele *002) expressed on transfected HEK-293T cells (human, UniProt P43630 22-455); experiment: flow cytometry on transfected HEK-293T cells
T25 construct: also called HEK-293T/KIR3DL2; WTaKIR3DL2

[27] = molecular target: T14, KIR3DL2 mutant M11A1 (V178A;H180S); experiment: flow cytometry on HEK-293T cells transfected with the mutant; - means substantially complete loss of binding
[28] = molecular target: T15, KIR3DL2 mutant M8 + 11 …; experiment: as above
[29] = molecular target: T26, KIR3DL2 mutant M5 + 11 (P66T;P179T;S181T) (human, UniProt P43630 22-455); experiment: as above
T26 construct: Expressed on transfected HEK-293T cells; also called Number 22 (5 + 11)

[30] = molecular target: T16, KIR3DL2 mutant M11 (P179T;S181T); experiment: as above
[31] = molecular target: T11, KIR3DL2 mutant M11A4 (E130S;H131S;R145S); experiment: flow cytometry on HEK-293T cells transfected with the mutant; + no significant loss of binding, ± decrease
[32] = molecular target: T27, KIR3DL2 mutant M8 (V127I) (human, UniProt P43630 22-455); experiment: as above
T27 construct: Expressed on transfected HEK-293T cells; also called Number 8; Mutant 8

[33] = molecular target: T12, KIR3DL2 mutant M11A6 (I150A;M128A); experiment: as above

IC50 (read off the curve) [1]: ~0.4 µg/mL
Kd [2]: 0.78 nM
Kd [3]: 0.37 nM
koff [3]: 0.00011 s⁻¹
% of cells in gate CD4 GaM PE+ [4]: 7.6%
binding result [5]: no binding (tested: 10 µg/ml)
binding result [6]: no binding (tested: 10 µg/ml)
binding result [7]: no binding (tested: 10 µg/ml)
binding result [8]: no binding (tested: 10 µg/ml)
binding result [9]: no binding (tested: 10 µg/ml)
binding result [10]: no binding
% of cells in gate NK GaM PE+ [11]: 12.7%
binding result [12]: no binding
binding result [13]: no binding
binding result [14]: binds
binding result [15]: binds
binding result [16]: binds
binding result [17]: binds
binding result [18]: binds
binding result [19]: binds
binding result [20]: binds
binding result [21]: binds
B1: antibody 15C11 (antibody, mouse IgG2a, V domains shown)
VH: EVKLEESGGGLVQPGGSMKLSCAASGFTFSDAWMDWVRQSPEKGLEWVAEIRSKANNHATYYAESVKGRFTISRDDSKSSVYLRMNSLRAEDTGIYYCTGGYYPVYWGQGTLVTVSA
VL: DIQMTQSPSSLSASLGGKVTITCKASQDINKNIAWYQHKPGKGPRLLIHYTSTLQPGFPSRFSGSGSGRDYSFSISNLEPEDLATYYCLQYDNLLTFGGGTKLEIK
notes: also called M-K32-15C11; 15C11-PE (PE-labelled form)

binding result [22]: binds
binding result [23]: no binding
binding result [24]: binds
binding result [25]: no binding
B2: antibody 13H1 (antibody, V domains shown)
VH: EVQLQQSGPELVKPGASMKISCKASHYSFIGYTMNWVKQRHGKNLEWIGLINPYNGDTTYNQKFKGKASLTVDKSSSTAYMEILSLTSEDSAVYYCARENWGYPYAMDYWGQGTSVTVS
VL: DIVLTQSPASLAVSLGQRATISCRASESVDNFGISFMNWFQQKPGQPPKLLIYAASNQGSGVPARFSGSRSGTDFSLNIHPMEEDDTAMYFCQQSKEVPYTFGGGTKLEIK

binding result [26]: binds
binding result [27]: no binding
binding result [28]: no binding
binding result [29]: no binding
binding result [30]: no binding
binding result [14]: binds
binding result [31]: binds
binding result [32]: binds
binding result [18]: binds
binding result [19]: binds
binding result [20]: binds
binding result [21]: binds
binding result [33]: binds
B3: antibody 12B11 (antibody, V domains shown)
VH: QLVQSGPELKNPGETVKISCKASGYTFTNYGMNWVKQAPGKGLKWMGWINTYTGEPTYADDFKGRFAFSLETSASTAYLQINNLKNEDTATYFCAHGPWLAYWGQGTLVTVS
VL: DIKMTQSPSSMYASLGERVTITCKASQDINVYLSWFQQKPGKSPKTLIYRAIRLVDGVPSRFSGSGSGQDYSLTISSLDYEDMGIYYCLQYDELPYTFGGGTKLEIE
